What all share (settings): both partners purified
Experiment [1] has as its target T1, Parkin (80-465)-Biotin, wild type (UniProt O60260 80-465, biotin (position not given)).
T1 sequence (looked up): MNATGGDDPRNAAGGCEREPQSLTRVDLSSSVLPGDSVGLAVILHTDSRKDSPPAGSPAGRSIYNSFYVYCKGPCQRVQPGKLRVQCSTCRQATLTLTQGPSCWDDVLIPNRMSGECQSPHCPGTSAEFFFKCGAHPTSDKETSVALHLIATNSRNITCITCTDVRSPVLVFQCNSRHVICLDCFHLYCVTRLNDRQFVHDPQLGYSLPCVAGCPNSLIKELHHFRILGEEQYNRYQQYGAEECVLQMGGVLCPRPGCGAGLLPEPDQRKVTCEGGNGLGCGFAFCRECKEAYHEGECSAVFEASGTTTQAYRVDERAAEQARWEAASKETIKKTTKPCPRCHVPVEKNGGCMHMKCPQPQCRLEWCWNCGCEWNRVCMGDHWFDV
As to the kind of experiment: AlphaScreen or HTRF; GST-Ubl (1-76) on glutathione acceptor beads and Parkin (80-465)-biotin (WT or H302A) on streptavidin donor beads, 10 nM each; inhibitor proteins in three-fold 10-point dilutions; PBS + 0.1% BSA + 0.1% Triton X-100; RT. (In general: Bead proximity is the source of the signal in Alpha formats.)

In experiment [2] the target is Ser65-phosphorylated ubiquitin (ubiquitin^Phospho-Ser65) (bovine, UniProt P0CG53 1-76, phosphoserine at 65). As to the kind of experiment: ITC; ubiquitin^PhosSer65 in the syringe titrated into 50 μM wild-type or mutant Parkin in the cell; 50 mM HEPES pH 8.0, 150 mM NaCl, 500 μM TCEP; 20°C; single binding site model. On the technique in general: ITC needs no label: the signal is the heat of the interaction.

Experiment [3] concerns the target Ser65-phosphorylated Dac-ubiquitin (Dac-ubiquitin^PhosSer65) (UniProt P0CG47 1-76, phosphoserine at 65 of ubiquitin). As to the kind of experiment: SEC; Superdex 200 Increase 10/300 GL; 50 mM Tris pH 7.5, 150 mM NaCl; 100 μg of each protein, mixtures incubated for 30 min before chromatography. In general terms: SEC sorts molecules by how far they enter the pores of the column.

B1: GST-Ubl (Parkin Ubl domain, residues 1-76) (domain or fragment, UniProt O60260 1-76, looked up)
chain: MIVFVRFNSSHGFPVEVDSDTSIFQLKEVVAKRQGVPADQLRVIFAGKELRNDWTVQNCDLDQQSIVHIVQRPWRK
On to B1, for which the binding result in experiment [1] is listed as “binds”.

B2: full-length Parkin Lys151Ala (K151A) mutant, untagged (enzyme, UniProt O60260 1-465, looked up)
chain: MIVFVRFNSSHGFPVEVDSDTSIFQLKEVVAKRQGVPADQLRVIFAGKELRNDWTVQNCDLDQQSIVHIVQRPWRKGQEMNATGGDDPRNAAGGCEREPQSLTRVDLSSSVLPGDSVGLAVILHTDSRKDSPPAGSPAGRSIYNSFYVYCAGPCQRVQPGKLRVQCSTCRQATLTLTQGPSCWDDVLIPNRMSGECQSPHCPGTSAEFFFKCGAHPTSDKETSVALHLIATNSRNITCITCTDVRSPVLVFQCNSRHVICLDCFHLYCVTRLNDRQFVHDPQLGYSLPCVAGCPNSLIKELHHFRILGEEQYNRYQQYGAEECVLQMGGVLCPRPGCGAGLLPEPDQRKVTCEGGNGLGCGFAFCRECKEAYHEGECSAVFEASGTTTQAYRVDERAAEQARWEAASKETIKKTTKPCPRCHVPVEKNGGCMHMKCPQPQCRLEWCWNCGCEWNRVCMGDHWFDV
The term Kd denotes the free concentration of one partner at which half of the binding sites on the other are occupied at equilibrium, for simple one-to-one binding. Lower therefore signals a tighter complex. B2 came in with a Kd in experiment [2] of roughly 7 µM.

B3: Parkin 1-465 S65A (enzyme, UniProt O60260 1-465, looked up)
chain: MIVFVRFNSSHGFPVEVDSDTSIFQLKEVVAKRQGVPADQLRVIFAGKELRNDWTVQNCDLDQQAIVHIVQRPWRKGQEMNATGGDDPRNAAGGCEREPQSLTRVDLSSSVLPGDSVGLAVILHTDSRKDSPPAGSPAGRSIYNSFYVYCKGPCQRVQPGKLRVQCSTCRQATLTLTQGPSCWDDVLIPNRMSGECQSPHCPGTSAEFFFKCGAHPTSDKETSVALHLIATNSRNITCITCTDVRSPVLVFQCNSRHVICLDCFHLYCVTRLNDRQFVHDPQLGYSLPCVAGCPNSLIKELHHFRILGEEQYNRYQQYGAEECVLQMGGVLCPRPGCGAGLLPEPDQRKVTCEGGNGLGCGFAFCRECKEAYHEGECSAVFEASGTTTQAYRVDERAAEQARWEAASKETIKKTTKPCPRCHVPVEKNGGCMHMKCPQPQCRLEWCWNCGCEWNRVCMGDHWFDV
On to B3, for which the binding result in experiment [3] is “binds”.
